The results in this text go back to patent US20240132595A1.

Assay [1] addresses canine MHC Class I DLA-12 antigen (canine (Canis lupus familiaris)). The assay is described as follows: flow cytometry on canine PBMCs [E].
The target is the same in assay [2]. The experiment in a line: flow cytometry on cells of CLBL-1 xenograft tumours (PBS group) [B].

B1: cLy-m10C5 (antibody, V domains shown)
VH: EVQLQQSGPELVKPGASVKISCKASGYTFTDYNMHWVKQSHGKSLEWIGYIYPYNGGTDYNQKFKSKATLTVDNSSSTAYMELRSLTSDDSTVYYCARGGLVGAMDYWGQGTSVTVSS
VL: DIQMTQSPASLSASVGETVTITCRASGNIHNSLAWYQQKQGKSPQLLVYNAKTLPDGVPSRFSGSGSGTQYSLKINSLQPEDFGSYYCQHFWSIPWTFGGGTKLEIK
The molecule B1 had an FITC-H subset (percent of cells in the positive gate) in assay [1] of 59.4%. The molecule also came in with an FL1-H (percent of cells in the positive gate) in assay [2] of 89.4%.

B2: cLy-c10C5 (antibody, V domains shown)
VH: B1 VH
VL: B1 VL
In assay [2], B2 had an FITC-A (percent of cells in the positive gate) of 98.7%.
